According to patent publication US20250090677A1 (MULTITUDE THERAPEUTICS, published 2025):
Positions count from the first letter of the chain named.

Experiments:
rat CDH6-ECD-His = molecular target: T1, rat CDH6-ECD-His (rat, UniProt P55280 54-615); assay: ELISA, antigen coated at 1 ug/mL, 3-fold antibody dilutions, HRP anti-human antibody, OD450
T1 construct: extracellular domain; Bought protein; not shown: His tag
T1 sequence (looked up): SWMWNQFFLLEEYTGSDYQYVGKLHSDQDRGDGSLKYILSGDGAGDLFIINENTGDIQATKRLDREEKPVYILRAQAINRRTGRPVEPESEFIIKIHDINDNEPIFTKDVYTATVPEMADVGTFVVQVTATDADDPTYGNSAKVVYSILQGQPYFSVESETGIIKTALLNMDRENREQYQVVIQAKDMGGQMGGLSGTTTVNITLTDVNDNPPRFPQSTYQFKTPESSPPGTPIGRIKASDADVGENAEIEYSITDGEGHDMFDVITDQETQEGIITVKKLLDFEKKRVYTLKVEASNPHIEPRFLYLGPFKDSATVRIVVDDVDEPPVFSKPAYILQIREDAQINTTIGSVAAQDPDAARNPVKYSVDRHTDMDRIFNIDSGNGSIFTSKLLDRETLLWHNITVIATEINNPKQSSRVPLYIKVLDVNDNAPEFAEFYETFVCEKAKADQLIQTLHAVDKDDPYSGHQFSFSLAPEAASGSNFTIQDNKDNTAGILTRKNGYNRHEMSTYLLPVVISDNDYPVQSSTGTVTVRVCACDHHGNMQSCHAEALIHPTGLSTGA
Protocol: (§1) CDH9 and […] are the most closely related family members to CDH6. Binding of CL069707-H1L1 on human CDH6, CDH9 and CDH10 ECD domains were analyzed by ELISA Binding Assay. Human […], CDH9-ECD-His and CDH10-ECD-His antigens were obtained from Acro Biosystems, Inc. 100 μL of 1 μg/mL of the antigens diluted in PBS were added to 96 well plates and incubated in 4° C. overnight. The plates were washed 3 times with 300 μL of washing buffer. Then 100 μL/well of 1% BSA blocking reagent were added to the plates, and incubated at 37° C. for 1 h then the blocking reagent were discarded. A 3-fold serial dilution of CL069707-H1L1 was added to the plates and then incubated at 37° C. for 1 h. Then the plates were washed 3 times with 300 μL of washing buffer. 100 μL/well of HRP-conjugated anti-Human antibody diluted in 1% BSA were added to the plates and then incubated at 37° C. for 1 h. The plates were washed 3 times with 300 μL of washing buffer. 100 μL/well of TMB substrate were added to the plates and incubated for about 10 min in room temperature. Then the reaction was stopped with 100 μL/well of stopping solution. OD450 was read with a plate reader and the data were processed.
(§2) Binding of CL069707-H1L1 on human, cyno monkey, mouse or rat CDH6 antigen were analyzed by ELISA. Human, cyno monkey, mouse and rat CDH6-ECD-His antigens were obtained from Acro Biosystems, Inc. ELISA were done with the same methods as in example 3.1. CL069707-H1L1 binds to human, cyno monkey, mouse and rat CDH6-ECD-His antigens with similar EC50.

Human CDH6-ECD-His = molecular target: T2, Human CDH6-ECD-His (human, UniProt P55285 54-615); assay: as above
T2 construct: extracellular domain; Bought protein; also called human CDH6-ECD-His recombinant protein; Human CDH6-EC6D-His; not shown: His tag
T2 sequence (looked up): T1 sequence (looked up) with D109E, A119S, H260L, R288K, H300Y, I301V, D322E, P333L, A353T
Protocol: as §1, §2

human CDH9-ECD-His = molecular target: T3, human CDH9-ECD-His (human, UniProt Q9ULB4 54-615); assay: ELISA, antigen coated at 1 ug/mL, 3-fold dilutions of CL069707-H1L1, HRP anti-human antibody, OD450
T3 construct: extracellular domain; Bought protein; also called CDH9-ECD-His protein; not shown: His tag
T3 sequence (looked up): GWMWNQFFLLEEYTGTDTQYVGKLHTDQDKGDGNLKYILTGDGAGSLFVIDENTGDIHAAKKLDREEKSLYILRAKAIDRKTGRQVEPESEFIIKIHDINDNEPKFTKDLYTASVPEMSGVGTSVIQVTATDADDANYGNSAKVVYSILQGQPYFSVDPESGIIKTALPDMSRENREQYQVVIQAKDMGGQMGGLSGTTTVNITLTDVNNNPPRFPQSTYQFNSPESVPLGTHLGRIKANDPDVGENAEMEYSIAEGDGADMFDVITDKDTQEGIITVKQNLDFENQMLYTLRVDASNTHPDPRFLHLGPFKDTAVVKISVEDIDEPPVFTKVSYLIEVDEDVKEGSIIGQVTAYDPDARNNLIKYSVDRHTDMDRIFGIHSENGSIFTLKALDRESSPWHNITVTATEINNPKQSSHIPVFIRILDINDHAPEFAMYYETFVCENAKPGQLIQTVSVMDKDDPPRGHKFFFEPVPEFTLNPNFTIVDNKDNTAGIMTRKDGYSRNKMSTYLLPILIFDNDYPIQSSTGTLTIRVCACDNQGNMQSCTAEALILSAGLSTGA
Protocol: as §1

EC50 (read off the curve) (rat CDH6-ECD-His): ~0.1 nM
EC50 (read off the curve) (Human CDH6-ECD-His): ~0.1 nM
binding result (human CDH9-ECD-His): no binding (tested: 100 nM)
B1: CL069707-H1L1 (antibody, human IgG1, kappa, V domains shown)
VH: EVQLVESGGGLVQPGGSLRLSCAASGFTFTTYAMNWVRQAPGKGLEWVARIRIKNNNYATYYADSVTDRFTISRDDSKNSLYLQMNSLKTEDTAVYYCVRPDYGNYGLAYWGQGTLVTVSS
VL: DIQLTQSPSSLSASVGDRVTITCSASSSISSHYLHWYQQKPGKSPKLLIYRSFYLASGVPSRFSGSGSGTDFTLTISSLQPEDFATYYCQQDIVPLTFGQGTKLEIKR
notes: Humanized IgG1/kappa, produced in 293 cells; also called humanized CL069707-H1L1
